From patent publication US20250230242A1, “PHARMACEUTICAL COMPOSITION OF ANTI-TIM-3 ANTIBODY AND HYPOMETHYLATING AGENT” (NANJING SHUNXIN PHARMACEUTICALS CO., LTD. OF CHIATAI …, priority 2022, published 2025)

How the values were obtained:
Daudi cells [1] = assay: ADCC against Daudi cells; format: cell-based; conditions: 1 or 10 μg/mL, effector cells PBMC, FIG. 3
Description: (§1) After the reaction was completed, the mixture was centrifuged, and the supernatant was collected and measured for fluorescence values at 490 nm as excitation wavelength and 515 nm as emission wavelength. The cells were lysed directly with 0.1% Triton X-100 and centrifuged, and then the supernatant was collected to determine the total fluorescence value. The lysis rate (%) was calculated based on the fluorescence value.

Daudi cells [2] = assay: CDC against Daudi cells; format: cell-based; conditions: 10 or 100 μg/mL, 10% human serum, FIG. 4
Description: (§2) CHO-S-HuTIM-3 cells and Daudi cells (Shanghai Cell Bank of Chinese Academy of Sciences) were inoculated into a 96-well plate. […] Finally, CCK-8 reagent (Dojindo Laboratories) was added and reacted for 4 h. The OD value was measured at a wavelength of 450 nm using a microplate reader, and the lysis rate (%) was calculated.

[3] = target: T1, CHO-S-HuTIM-3 cells highly expressing human TIM-3 (Homo sapiens, UniProt Q8TDQ0); assay: Binding to cells highly expressing human TIM-3 (cell ELISA)
T1 construct: expressed in transfected cells; host or cells: CHO-S
Description: The human TIM-3 gene was transfected into CHO-S cells, and the cells were incubated in an incubator at 37° C. with 5% CO2 using a Dynamis AGT medium (containing 4 mM glutamic acid and 3 μg/mL Puromycin) to give CHO-S-HuTIM-3 cells. […] After the reaction was stopped with H2SO4, the OD value was measured at a wavelength of 450 nm using a full-function microplate reader Synergy H4. The binding EC50 was calculated based on the OD value.

CHO-S-HuTIM-3 cells [4] = assay: ADCC against CHO-S-HuTIM-3 cells; format: cell-based; conditions: 10 or 100 μg/mL, effector cells PBMC, FIG. 3
Description: as §1

CHO-S-HuTIM-3 cells [5] = assay: CDC against CHO-S-HuTIM-3 cells; format: cell-based; conditions: 10 or 100 μg/mL, 10% human serum, FIG. 4
Description: as §2

[6] = target: T2, human TIM-3 on CHO-S-HuTIM-3 cells (human, UniProt Q8TDQ0 22-301); assay: cell ELISA on CHO-S-HuTIM-3 cells, anti-human kappa-HRP
T2 construct: whole, on cells; Human TIM-3 gene transfected into CHO-S cells; also called CHO-S-HuTIM-3 cells highly expressing human TIM-3

[7] = target: T3, human TIM-3 recombinant protein (R&D) (human, UniProt Q8TDQ0 22-200); assay: ELISA, human TIM-3 coated, h50B5 titrated, anti-human kappa-HRP
T3 construct: Bought recombinant protein; also called human TIM-3 protein

[8] = target: T4, cynomolgus monkey TIM-3 recombinant protein (Acro) (cynomolgus monkey, UniProt A0A2K5U3G7 22-193); assay: ELISA, h50B5 coated at 2 µg/mL, cynomolgus TIM-3 titrated, Anti-His HRP
T4 construct: Bought recombinant protein; His tag implied only by the Anti-His HRP detection; also called cynomolgus monkey TIM-3 protein
T4 sequence: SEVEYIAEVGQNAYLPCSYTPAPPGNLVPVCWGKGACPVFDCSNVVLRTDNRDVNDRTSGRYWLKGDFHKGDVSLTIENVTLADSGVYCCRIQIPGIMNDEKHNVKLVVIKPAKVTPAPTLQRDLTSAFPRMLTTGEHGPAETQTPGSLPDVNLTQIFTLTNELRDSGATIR

Rituxan®: positive control for ADCC and CDC with Daudi cells as target cells
ADCC against Daudi cells (Daudi cells [1]): exhibited significant ADCC
CDC against Daudi cells (Daudi cells [2]): exhibited significant CDC

TSR022: anti-TIM-3 antibody used as benchmark, heavy chain SEQ ID NO: 22, light chain SEQ ID NO: 23 [reference compound]
EC50 of binding to CHO-S-HuTIM-3 cells ([3]; FIG. 1): 6.8155 ± 0.1662 µg/mL
maximum binding Emax (OD450), CHO-S-HuTIM-3 cells ([3]; FIG. 1, OD450): 0.26±0.05
ADCC against CHO-S-HuTIM-3 cells (CHO-S-HuTIM-3 cells [4]): did not show significant ADCC
CDC against CHO-S-HuTIM-3 cells (CHO-S-HuTIM-3 cells [5]): did not show significant CDC

B1: anti-TIM-3 antibody TSR022 (antibody, human IgG4 S228P, kappa, V domains shown)
VH: EVQLLESGGGLVQPGGSLRLSCAAASGFTFSSYDMSWVRQAPGKGLDWVSTISGGGTYTYYQDSVKGRFTISRDNSKNTLYLQMNSLRAEDTAVYYCASMDYWGQGTTVTVSS
VL: DIQMTQSPSSLSASVGDRVTITCRASQSIRRYLNWYHQKPGKAPKLLIYGASTLQSGVPSRFSGSGSGTDFTLTISSLQPEDFAVYYCQQSHSAPLTFGGGTKVEIKR
notes: Benchmark antibody, prepared in the same way as h50B5
EC50 [6]: 6.82 µg/mL

B2: humanized anti-TIM-3 antibody h50B5 (antibody, human IgG4 S228P, kappa, V domains shown)
VH: QVQLVQSGAEVKKPGASVKVSCKASGYSFTGYTINWVRQAPGQGLEWMGLFNPYNGGTTYAQKFQGRVTMTVDKSTSTVYMELSSLRSEDTAVYYCARRYYGYDAMDYWGQGTLVTVSS
VL: DIQMTQSPSSLSASVGDRVTITCKSSQSVLYSSNQKNHLAWYQQKPGKAPKLLIYWASTRESGVPSRFSGSGSGTDFTLTISSLQPEDFATYYCHQYLSSYTFGQGTKLEIKR
notes: Humanized from mouse mAb 50B5 by CDR grafting; human IgG4 heavy chain constant region and human light chain constant region
EC50 [6]: 1.46 µg/mL
EC50 [7]: 0.291 µg/mL
EC50 [8]: 1.64 µg/mL
